Laboratory results from the supplement of paper PMC10567573.

B1: TMEM192 (parent)
chain: LWILHLLLECYIQYHHSKIRNRGY
B2: TNXB (parent)
chain: FSEIRETSAKVNWMPPPSRADSFK

Variants of: B1
Test: protein stability index of a GFP-peptide fusion (GPS, HEK-293T) (PSI 1-6); higher = more stable
Conditions: c terminus: a fixed tail appended
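Also: lentivirally expressed fusions sorted by FACS into six bins by GFP to DsRed ratio, PSI derived from sequencing read proportions per bin multiplied by bin number.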

Variant | protein stability index
LWILHLLLECYIQYHHSKIRNRCY | 2.04
LWILHLLLECYIQYHHSKIRNRFY | 1.38
LWILHLLLECYIQYHHSKIRNRIY | 2.99
LWILHLLLECYIQYHHSKIRNRKY | 2.54
LWILHLLLECYIQYHHSKIRNRMY | 1.87
LWILHLLLECYIQYHHSKIRNRNY | 1.79
LWILHLLLECYIQYHHSKIRNRPY | 3.17
LWILHLLLECYIQYHHSKIRNRQY | 2.51
LWILHLLLECYIQYHHSKIRNRRY | 1.78
LWILHLLLECYIQYHHSKIRNRTY | 2.78
LWILHLLLECYIQYHHSKIRNRVY | 3.73
LWILHLLLECYIQYHHSKIRNRWY | 1.77
LWILHLLLECYIQYHHSKIRNRYY | 1.89
LWILHLLLECYIQYHHSKIRNRGA | 2.18
LWILHLLLECYIQYHHSKIRNRGC | 1.79
LWILHLLLECYIQYHHSKIRNRGG | 3.91
LWILHLLLECYIQYHHSKIRNRGH | 1.62
LWILHLLLECYIQYHHSKIRNRGI | 2.54
LWILHLLLECYIQYHHSKIRNRGK | 1.31
LWILHLLLECYIQYHHSKIRNRGM | 2.28
LWILHLLLECYIQYHHSKIRNRGN | 2.44
LWILHLLLECYIQYHHSKIRNRGP | 2.52
LWILHLLLECYIQYHHSKIRNRGQ | 1.57
LWILHLLLECYIQYHHSKIRNRGR | 2.31
LWILHLLLECYIQYHHSKIRNRGS | 2.3
LWILHLLLECYIQYHHSKIRNRGT | 1.12
LWILHLLLECYIQYHHSKIRNRGV | 2.69

Variants of: B2
Test: as above
Conditions: c terminus: a fixed tail appended

Variant | protein stability index
ASEIRETSAKVNWMPPPSRADSFK | 4.29
CSEIRETSAKVNWMPPPSRADSFK | 3.69
DSEIRETSAKVNWMPPPSRADSFK | 5.04
ESEIRETSAKVNWMPPPSRADSFK | 4.45
GSEIRETSAKVNWMPPPSRADSFK | 4.22
HSEIRETSAKVNWMPPPSRADSFK | 3.94
ISEIRETSAKVNWMPPPSRADSFK | 3.46
KSEIRETSAKVNWMPPPSRADSFK | 4.4
LSEIRETSAKVNWMPPPSRADSFK | 4.02
MSEIRETSAKVNWMPPPSRADSFK | 4.15
NSEIRETSAKVNWMPPPSRADSFK | 4.63
PSEIRETSAKVNWMPPPSRADSFK | 4.76
QSEIRETSAKVNWMPPPSRADSFK | 4.48
RSEIRETSAKVNWMPPPSRADSFK | 4.99
SSEIRETSAKVNWMPPPSRADSFK | 4.48
TSEIRETSAKVNWMPPPSRADSFK | 4.07
VSEIRETSAKVNWMPPPSRADSFK | 4.19
WSEIRETSAKVNWMPPPSRADSFK | 3.6
YSEIRETSAKVNWMPPPSRADSFK | 3.98
FAEIRETSAKVNWMPPPSRADSFK | 2.69
FDEIRETSAKVNWMPPPSRADSFK | 4.12
FEEIRETSAKVNWMPPPSRADSFK | 3.98
FFEIRETSAKVNWMPPPSRADSFK | 2.65

Variant | protein stability index
FGEIRETSAKVNWMPPPSRADSFK | 2.97
FHEIRETSAKVNWMPPPSRADSFK | 2.21
FIEIRETSAKVNWMPPPSRADSFK | 2.17
FKEIRETSAKVNWMPPPSRADSFK | 3.49
FLEIRETSAKVNWMPPPSRADSFK | 2.97
FMEIRETSAKVNWMPPPSRADSFK | 3.17
FNEIRETSAKVNWMPPPSRADSFK | 4.04
FPEIRETSAKVNWMPPPSRADSFK | 3.65
FQEIRETSAKVNWMPPPSRADSFK | 3.97
FREIRETSAKVNWMPPPSRADSFK | 3.2
FTEIRETSAKVNWMPPPSRADSFK | 2.67
FVEIRETSAKVNWMPPPSRADSFK | 1.9
FWEIRETSAKVNWMPPPSRADSFK | 2.37
FYEIRETSAKVNWMPPPSRADSFK | 3
FSAIRETSAKVNWMPPPSRADSFK | 2.4
FSCIRETSAKVNWMPPPSRADSFK | 1.77
FSDIRETSAKVNWMPPPSRADSFK | 3.37
FSFIRETSAKVNWMPPPSRADSFK | 2.38
FSGIRETSAKVNWMPPPSRADSFK | 2.34
FSHIRETSAKVNWMPPPSRADSFK | 2.62
FSIIRETSAKVNWMPPPSRADSFK | 2.03
FSKIRETSAKVNWMPPPSRADSFK | 3.68
FSLIRETSAKVNWMPPPSRADSFK | 2.47

Variant | protein stability index
FSMIRETSAKVNWMPPPSRADSFK | 2.55
FSNIRETSAKVNWMPPPSRADSFK | 3.2
FSPIRETSAKVNWMPPPSRADSFK | 2.52
FSQIRETSAKVNWMPPPSRADSFK | 3.13
FSRIRETSAKVNWMPPPSRADSFK | 3.13
FSSIRETSAKVNWMPPPSRADSFK | 3.09
FSTIRETSAKVNWMPPPSRADSFK | 3.52
FSVIRETSAKVNWMPPPSRADSFK | 2.44
FSWIRETSAKVNWMPPPSRADSFK | 2.6
FSYIRETSAKVNWMPPPSRADSFK | 2.21
FSEARETSAKVNWMPPPSRADSFK | 3.76
FSECRETSAKVNWMPPPSRADSFK | 3.49
FSEDRETSAKVNWMPPPSRADSFK | 3.99
FSEERETSAKVNWMPPPSRADSFK | 4.3
FSEFRETSAKVNWMPPPSRADSFK | 2.9
FSEGRETSAKVNWMPPPSRADSFK | 4.34
FSEHRETSAKVNWMPPPSRADSFK | 4.14
FSEKRETSAKVNWMPPPSRADSFK | 3.72
FSELRETSAKVNWMPPPSRADSFK | 3.42
FSEMRETSAKVNWMPPPSRADSFK | 3.92
FSENRETSAKVNWMPPPSRADSFK | 3.51
FSEPRETSAKVNWMPPPSRADSFK | 4.16
FSEQRETSAKVNWMPPPSRADSFK | 3.89

Variant | protein stability index
FSERRETSAKVNWMPPPSRADSFK | 3
FSESRETSAKVNWMPPPSRADSFK | 4.01
FSETRETSAKVNWMPPPSRADSFK | 4.29
FSEVRETSAKVNWMPPPSRADSFK | 3.56
FSEWRETSAKVNWMPPPSRADSFK | 1.9
FSEYRETSAKVNWMPPPSRADSFK | 2.94
FSEIAETSAKVNWMPPPSRADSFK | 3.96
FSEICETSAKVNWMPPPSRADSFK | 2.83
FSEIDETSAKVNWMPPPSRADSFK | 3.97
FSEIEETSAKVNWMPPPSRADSFK | 4.23
FSEIFETSAKVNWMPPPSRADSFK | 2.86
FSEIGETSAKVNWMPPPSRADSFK | 3.22
FSEIHETSAKVNWMPPPSRADSFK | 3.79
FSEIIETSAKVNWMPPPSRADSFK | 3.4
FSEIKETSAKVNWMPPPSRADSFK | 3.74
FSEILETSAKVNWMPPPSRADSFK | 3.51
FSEIMETSAKVNWMPPPSRADSFK | 3.48
FSEINETSAKVNWMPPPSRADSFK | 3.79
FSEIPETSAKVNWMPPPSRADSFK | 4.12
FSEIQETSAKVNWMPPPSRADSFK | 4.15
FSEISETSAKVNWMPPPSRADSFK | 4.02
FSEITETSAKVNWMPPPSRADSFK | 3.87
FSEIVETSAKVNWMPPPSRADSFK | 3.52

Variant | protein stability index
FSEIWETSAKVNWMPPPSRADSFK | 2.02
FSEIYETSAKVNWMPPPSRADSFK | 3.04
FSEIRATSAKVNWMPPPSRADSFK | 3.31
FSEIRCTSAKVNWMPPPSRADSFK | 2.65
FSEIRDTSAKVNWMPPPSRADSFK | 3.28
FSEIRFTSAKVNWMPPPSRADSFK | 2.22
FSEIRGTSAKVNWMPPPSRADSFK | 3.03
FSEIRHTSAKVNWMPPPSRADSFK | 3.38
FSEIRITSAKVNWMPPPSRADSFK | 1.82
FSEIRKTSAKVNWMPPPSRADSFK | 3
FSEIRLTSAKVNWMPPPSRADSFK | 2.28
FSEIRMTSAKVNWMPPPSRADSFK | 2.34
FSEIRNTSAKVNWMPPPSRADSFK | 2.69
FSEIRPTSAKVNWMPPPSRADSFK | 3.21
FSEIRQTSAKVNWMPPPSRADSFK | 2.02
FSEIRRTSAKVNWMPPPSRADSFK | 2.89
FSEIRSTSAKVNWMPPPSRADSFK | 2.64
FSEIRTTSAKVNWMPPPSRADSFK | 2.95
FSEIRVTSAKVNWMPPPSRADSFK | 2.84
FSEIRWTSAKVNWMPPPSRADSFK | 2
FSEIRYTSAKVNWMPPPSRADSFK | 2.87
FSEIREASAKVNWMPPPSRADSFK | 3.23
FSEIRECSAKVNWMPPPSRADSFK | 3.24

Variant | protein stability index
FSEIREDSAKVNWMPPPSRADSFK | 3.86
FSEIREESAKVNWMPPPSRADSFK | 3.88
FSEIREFSAKVNWMPPPSRADSFK | 1.78
FSEIREGSAKVNWMPPPSRADSFK | 3.14
FSEIREHSAKVNWMPPPSRADSFK | 3.1
FSEIREISAKVNWMPPPSRADSFK | 2.9
FSEIREKSAKVNWMPPPSRADSFK | 3.97
FSEIRELSAKVNWMPPPSRADSFK | 2.69
FSEIREMSAKVNWMPPPSRADSFK | 2.97
FSEIRENSAKVNWMPPPSRADSFK | 3.37
FSEIREPSAKVNWMPPPSRADSFK | 3.64
FSEIREQSAKVNWMPPPSRADSFK | 3.38
FSEIRERSAKVNWMPPPSRADSFK | 3.3
FSEIRESSAKVNWMPPPSRADSFK | 3.22
FSEIREVSAKVNWMPPPSRADSFK | 2.97
FSEIREYSAKVNWMPPPSRADSFK | 2.25
FSEIRETAAKVNWMPPPSRADSFK | 3.5
FSEIRETCAKVNWMPPPSRADSFK | 3.95
FSEIRETDAKVNWMPPPSRADSFK | 4.48
FSEIRETEAKVNWMPPPSRADSFK | 3.5
FSEIRETFAKVNWMPPPSRADSFK | 2.51
FSEIRETGAKVNWMPPPSRADSFK | 3.15
FSEIRETHAKVNWMPPPSRADSFK | 3.4

Variant | protein stability index
FSEIRETIAKVNWMPPPSRADSFK | 2.73
FSEIRETKAKVNWMPPPSRADSFK | 2.95
FSEIRETLAKVNWMPPPSRADSFK | 2.79
FSEIRETMAKVNWMPPPSRADSFK | 3.15
FSEIRETNAKVNWMPPPSRADSFK | 3.73
FSEIRETPAKVNWMPPPSRADSFK | 3.3
FSEIRETQAKVNWMPPPSRADSFK | 3.76
FSEIRETRAKVNWMPPPSRADSFK | 2.74
FSEIRETTAKVNWMPPPSRADSFK | 3.63
FSEIRETVAKVNWMPPPSRADSFK | 3.1
FSEIRETWAKVNWMPPPSRADSFK | 2.1
FSEIRETYAKVNWMPPPSRADSFK | 2.95
FSEIRETSCKVNWMPPPSRADSFK | 2.38
FSEIRETSDKVNWMPPPSRADSFK | 3.58
FSEIRETSEKVNWMPPPSRADSFK | 4.04
FSEIRETSFKVNWMPPPSRADSFK | 2.2
FSEIRETSGKVNWMPPPSRADSFK | 3.04
FSEIRETSHKVNWMPPPSRADSFK | 3.36
FSEIRETSIKVNWMPPPSRADSFK | 2.83
FSEIRETSKKVNWMPPPSRADSFK | 3
FSEIRETSLKVNWMPPPSRADSFK | 3.41
FSEIRETSMKVNWMPPPSRADSFK | 3.32
FSEIRETSNKVNWMPPPSRADSFK | 2.95
